Source: patent US20150344570A1 (published 2015)

T1: FcgRIIb (human, UniProt P31994 43-217)
T1 construct: extracellular domain; also called FcγRIIb; 2b; not shown: His tag at the C terminus
T1 sequence (looked up): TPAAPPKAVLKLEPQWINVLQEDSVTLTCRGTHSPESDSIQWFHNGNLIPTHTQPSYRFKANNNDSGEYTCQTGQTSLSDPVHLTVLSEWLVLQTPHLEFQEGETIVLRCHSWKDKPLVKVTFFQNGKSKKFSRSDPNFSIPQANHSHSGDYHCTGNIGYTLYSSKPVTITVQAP

T2: FcgRIIaH (human, UniProt P12318 34-217)
T2 construct: extracellular domain; also called FcγRIIa H; FcγRIIa type H; not shown: His tag at the C terminus
T2 sequence (looked up): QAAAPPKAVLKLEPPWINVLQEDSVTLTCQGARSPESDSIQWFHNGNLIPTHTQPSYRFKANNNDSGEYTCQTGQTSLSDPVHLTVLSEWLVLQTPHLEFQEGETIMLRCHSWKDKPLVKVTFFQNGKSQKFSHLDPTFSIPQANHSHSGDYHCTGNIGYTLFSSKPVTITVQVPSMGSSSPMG

T3: FcgRIIaR (human, UniProt P12318 34-217)
T3 construct: extracellular domain; also called FcγRIIa R; FcγRIIa type R; not shown: His tag at the C terminus
T3 sequence (looked up): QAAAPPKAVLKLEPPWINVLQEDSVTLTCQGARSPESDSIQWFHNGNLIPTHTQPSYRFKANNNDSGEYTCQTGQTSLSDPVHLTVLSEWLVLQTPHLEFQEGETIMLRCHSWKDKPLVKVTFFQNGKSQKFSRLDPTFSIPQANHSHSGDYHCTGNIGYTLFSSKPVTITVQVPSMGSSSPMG


Columns and labels:
FcgRIIb [1] = molecular target: T1, FcgRIIb; assay: SPR (Biacore); KD of H240-Kn033/H240-Hl033/L73-k0 divided by KD of the variant
FcgRIIaH [2] = molecular target: T2, FcgRIIaH; assay: as above
FcgRIIIaV [3] = molecular target: T4, FcgRIIIaV (human, UniProt P08637 17-208); assay: as above
T4 construct: extracellular domain; Polymorphic site after J. Clin. Invest; also called FcγRIIIa V; 3aV; not shown: His tag at the C terminus
T4 sequence (P08637 17-208 F176V limits assumed): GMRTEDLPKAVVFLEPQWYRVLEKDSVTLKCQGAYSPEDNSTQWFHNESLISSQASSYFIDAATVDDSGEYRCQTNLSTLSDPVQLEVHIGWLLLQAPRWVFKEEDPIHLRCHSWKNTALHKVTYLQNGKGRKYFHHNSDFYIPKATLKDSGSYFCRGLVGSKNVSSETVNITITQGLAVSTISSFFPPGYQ

FcgRIIIaF [4] = molecular target: T5, FcgRIIIaF (human, UniProt P08637 17-208); assay: as above
T5 construct: extracellular domain; Polymorphic site after J. Clin. Invest; also called FcγRIIIa F; 3aF; not shown: His tag at the C terminus
T5 sequence (P08637 17-208): as the sequence (P08637 17-208 F176V limits assumed) above, with V160F counted along it

FcgRIIaR [5] = molecular target: T3, FcgRIIaR; assay: as above
FcgRIa = molecular target: T6, FcgRIa (human, UniProt P12314 16-292); assay: SPR (Biacore), antibody captured, FcgR extracellular domain as analyte
T6 construct: extracellular domain; also called FcγRIa; FcγRI; not shown: His tag at the C terminus
T6 sequence (P12314 16-292): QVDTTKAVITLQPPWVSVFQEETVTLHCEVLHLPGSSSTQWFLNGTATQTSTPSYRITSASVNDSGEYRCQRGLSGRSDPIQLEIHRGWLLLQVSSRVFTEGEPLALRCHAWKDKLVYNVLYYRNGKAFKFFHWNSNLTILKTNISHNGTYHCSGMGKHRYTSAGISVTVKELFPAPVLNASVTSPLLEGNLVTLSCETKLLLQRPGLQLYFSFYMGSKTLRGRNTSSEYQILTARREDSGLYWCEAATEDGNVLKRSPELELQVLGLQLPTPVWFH
Experimental: (§1) Next, the amino acid at position 330 was examined. The A330M alteration has been introduced into H240-Hl076 of H240-Kn125/H240-Hl076/L73-k0. […] L73-k0 was used as the common antibody L chain. Binding of the produced variants to FcgRIa, FcgRIIaR, FcgRIIaH, FcgRIIb, FcgRIIIaF, and FcgRIIIaV was measured according to the method of Reference Example 8.
(§2) Analysis of interaction between objective antibody and the FcγR was carried out using Biacore T100 (GE Healthcare), Biacore T200, Biacore A100, and Biacore 4000. HBS-EP+ (GE Healthcare) was used as the running buffer, and the measurement temperature was set to 25° C. Chips produced by immobilizing the antigen peptide by the amine coupling method to a Series S sensor Chip CM5 (GE Healthcare), chips produced by allowing preliminarily biotinylated antigen peptides to interact with and immobilize onto a Series S Sensor Chip SA (certified) (GE Healthcare), chips produced by immobilizing Protein L (ACTIGEN, BioVision) to Series S Sencor Chip CM5 (GE Healthcare), or chips produced by immobilizing Protein A/G (Thermo Scientific) to Series S Sencor Chip CM5 (GE Healthcare) were used. Antibodies of interest were captured onto these chips, and allowed to interact to each FcγR diluted with running buffer. To regenerate and repeatedly use the chip, the antibodies captured onto the chip were washed off by reacting 10 mM glycine-HCl, pH 1.5.

FcgRIIb [6] = molecular target: T1, FcgRIIb; assay: as above
Experimental: as §1, §2

FcgRIIaH [7] = molecular target: T2, FcgRIIaH; assay: as above
Experimental: as §1, §2

FcgRIIIaV [8] = molecular target: T4, FcgRIIIaV; assay: as above
Experimental: as §1, §2

FcgRIIIaF [9] = molecular target: T5, FcgRIIIaF; assay: as above
Experimental: as §1, §2

FcgRIIaR [10] = molecular target: T3, FcgRIIaR; assay: as above
Experimental: as §1, §2

Row | fold 2b (FcgRIIb [1]) [fold] | fold 2aH (FcgRIIaH [2]) [fold] | fold 3aV (FcgRIIIaV [3]) [fold] | fold 3aF (FcgRIIIaF [4]) [fold] | fold 2aR (FcgRIIaR [5]) [fold] | Kd (FcgRIa) [nM] | Kd (FcgRIIb [6]) [nM] | Kd (FcgRIIaH [7]) [nM] | Kd (FcgRIIIaV [8]) [nM] | Kd (FcgRIIIaF [9]) [nM] | Kd (FcgRIIaR [10]) [nM] | Binder
1 | 0.9 | 4 | 146 | 121 | 1.7 | 0.076 | 3500 | 130 | 0.33 | 2.4 | 440 | H240-Kn125/H240-Hl217/L73-k0 (antibody, human IgG1, kappa) heavy 1: QDQLVQSGAEVKKPGASVKVSCKASGFNIKDTYIQWVRQAPGQGLEWMGRIDPLRKQTKYREKFEGRVTITADTSTNTAYMELSSLRSEDTAVYYCVRSGREFDYWGQGTLVTVSSASTKGPSVFPLAPSSKSTSGGTAALGCLVKDYFPEPVTVSWNSGALTSGVHTFPAVLQSSGLYSLSSVVTVPSSSLGTQTYICNVNHKPSNTKVDKKVEPKSCDKTHTCPPCPAPEYQWGPMVFLFPPKPKDTLMISRTPEVTCVVVDVSDEEPEVKFNWYVDGVEVHNAKTKPREEQYNATYRVVSVLTVLHQDWLNGKEYKCKVSNKALPAPIEKTISKAKGQPREPQVCTLPPSRDELTKNQVSLWCLVKGFYPSDIAVEWESNGQPENNYKTTPPVLDSDGSFFLYSKLTVDKSRWQQGNVFSCSVMHEALHNHYTQKSLSLSP heavy 2: QDQLVQSGAEVKKPGASVKVSCKASGFNIKDTYIQWVRQAPGQGLEWMGRIDPLRKQTKYREKFEGRVTITADTSTNTAYMELSSLRSEDTAVYYCVRSGREFDYWGQGTLVTVSSASTKGPSVFPLAPSSKSTSGGTAALGCLVKDYFPEPVTVSWNSGALTSGVHTFPAVLQSSGLYSLSSVVTVPSSSLGTQTYICNVNHKPSNTKVDKKVEPKSCDKTHTCPPCPAPELLGGPSVFLFPPKPKDTLMISRTPEVTCVVVDVSHEEPEVKFNWYVDGVEVHNAKTKPREEQYNSTYRVVSVLTVLHQDWLNGKEYKCKVSNDALPYPIEETISKAKGQPREPQVYTLPPSRCELTKNQVSLSCAVKGFYPSDIAVEWESNGQPENNYKTTPPVLDSDGSFFLVSKLTVDKSRWQQGNVFSCSVMHEALHNHYTQKSLSLSP light: DIQMTQSPSSLSASVGDRVTITCRASQDIHKYIAWYQQKPGQAPRLLIQYTSTLQPGVPSRFSGSGSGTDYTFTISSLQPEDIATYYCLQYEQLRTFGGGTKVEIKRTVAAPSVFIFPPSDEQLKSGTASVVCLLNNFYPREAKVQWKVDNALQSGNSQESVTEQDSKDSTYSLSSTLTLSKADYEKHKVYACEVTHQGLSSPVTKSFNRGEC
2 | 1.1 | 4.7 | 70.6 | 112 | 2.4 | 0.092 | 2900 | 110 | 0.68 | 2.6 | 310 | H240-Kn125/H240-Hl218/L73-k0 (antibody, human IgG1, kappa) heavy 1: QDQLVQSGAEVKKPGASVKVSCKASGFNIKDTYIQWVRQAPGQGLEWMGRIDPLRKQTKYREKFEGRVTITADTSTNTAYMELSSLRSEDTAVYYCVRSGREFDYWGQGTLVTVSSASTKGPSVFPLAPSSKSTSGGTAALGCLVKDYFPEPVTVSWNSGALTSGVHTFPAVLQSSGLYSLSSVVTVPSSSLGTQTYICNVNHKPSNTKVDKKVEPKSCDKTHTCPPCPAPEYQWGPMVFLFPPKPKDTLMISRTPEVTCVVVDVSDEEPEVKFNWYVDGVEVHNAKTKPREEQYNATYRVVSVLTVLHQDWLNGKEYKCKVSNKALPAPIEKTISKAKGQPREPQVCTLPPSRDELTKNQVSLWCLVKGFYPSDIAVEWESNGQPENNYKTTPPVLDSDGSFFLYSKLTVDKSRWQQGNVFSCSVMHEALHNHYTQKSLSLSP heavy 2: QDQLVQSGAEVKKPGASVKVSCKASGFNIKDTYIQWVRQAPGQGLEWMGRIDPLRKQTKYREKFEGRVTITADTSTNTAYMELSSLRSEDTAVYYCVRSGREFDYWGQGTLVTVSSASTKGPSVFPLAPSSKSTSGGTAALGCLVKDYFPEPVTVSWNSGALTSGVHTFPAVLQSSGLYSLSSVVTVPSSSLGTQTYICNVNHKPSNTKVDKKVEPKSCDKTHTCPPCPAPELLGGPSVFLFPPKPKDTLMISRTPEVTCVVVDVSHEEPEVKFNWYVDGVEVHNAKTKPREEQYNSTYRVVSVLTVLHQDWLNGKEYKCKVSNDALPHPIEETISKAKGQPREPQVYTLPPSRCELTKNQVSLSCAVKGFYPSDIAVEWESNGQPENNYKTTPPVLDSDGSFFLVSKLTVDKSRWQQGNVFSCSVMHEALHNHYTQKSLSLSP light: DIQMTQSPSSLSASVGDRVTITCRASQDIHKYIAWYQQKPGQAPRLLIQYTSTLQPGVPSRFSGSGSGTDYTFTISSLQPEDIATYYCLQYEQLRTFGGGTKVEIKRTVAAPSVFIFPPSDEQLKSGTASVVCLLNNFYPREAKVQWKVDNALQSGNSQESVTEQDSKDSTYSLSSTLTLSKADYEKHKVYACEVTHQGLSSPVTKSFNRGEC
